Assay [1] concerns the target NOP-RLuc (UniProt P41146). To be noted: for E max, NOP–G protein interaction (BRET), normalised to N/OFQ-NH2 (E max = 1): scale: fraction of the maximal effect of N/OFQ-NH2.
Assay [2] deals with human nociceptin/orphanin FQ (N/OFQ) peptide receptor (human) (UniProt P41146).

Ends that are not written are not given here.

Sequence of human nociceptin/orphanin FQ (N/OFQ) peptide receptor (human) (P41146 whole entry): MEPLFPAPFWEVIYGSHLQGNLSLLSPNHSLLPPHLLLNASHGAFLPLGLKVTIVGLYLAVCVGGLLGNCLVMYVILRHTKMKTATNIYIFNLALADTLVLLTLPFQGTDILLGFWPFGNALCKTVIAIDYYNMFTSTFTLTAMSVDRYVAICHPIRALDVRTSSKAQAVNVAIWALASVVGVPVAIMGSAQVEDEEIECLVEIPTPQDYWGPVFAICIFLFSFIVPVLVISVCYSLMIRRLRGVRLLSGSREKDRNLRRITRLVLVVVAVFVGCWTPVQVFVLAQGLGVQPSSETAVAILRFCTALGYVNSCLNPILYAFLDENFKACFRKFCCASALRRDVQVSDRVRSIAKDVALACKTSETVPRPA
Sequence of NOP-RLuc (P41146 whole entry): as above

B1: [[Cys^15]N/OFQ-NH2]2 (peptide)
peptide: FGGFTGARKSARKLCNQ-NH2
modifications: also: homodimer: Cys15-Cys15 disulfide to second copy
Regarding B1, in assay [1], the pEC50, NOP–G protein interaction (BRET, membranes of HEK293 cells with NOP-RLuc and Gβ1-RGFP) turned out to be 9.71 pEC50; the E max, NOP–G protein interaction (BRET), normalised to N/OFQ-NH2 (E max = 1) was 0.95. In assay [2], this molecule came in with an E max, Ca^2+ mobilization in CHO cells with human NOP and Gαqi5 (% over baseline) of 297; a pEC50, Ca^2+ mobilization in CHO cells with human NOP and Gαqi5 of 8.53 pEC50.

B2: [[Cys^8]N/OFQ-NH2]2 (peptide)
peptide: FGGFTGACKSARKLANQ-NH2
modifications: also: homodimer: Cys8-Cys8 disulfide to second copy
For the molecule B2, in assay [1], the pEC50, NOP–G protein interaction (BRET, membranes of HEK293 cells with NOP-RLuc and Gβ1-RGFP) came to 8.04 pEC50; the E max, NOP–G protein interaction (BRET), normalised to N/OFQ-NH2 (E max = 1) worked out at 1.04. In assay [2], this molecule had an E max, Ca^2+ mobilization in CHO cells with human NOP and Gαqi5 (% over baseline) of 322; a pEC50, Ca^2+ mobilization in CHO cells with human NOP and Gαqi5 of 7.36 pEC50.

B3: [[Cys^7]N/OFQ-NH2]2 (peptide)
peptide: FGGFTGCRKSARKLANQ-NH2
modifications: also: homodimer: Cys7-Cys7 disulfide to second copy
In assay [1], B3 gave a pEC50, NOP–G protein interaction (BRET, membranes of HEK293 cells with NOP-RLuc and Gβ1-RGFP) of 8.71 pEC50; an E max, NOP–G protein interaction (BRET), normalised to N/OFQ-NH2 (E max = 1) of 1.09. In assay [2], this molecule displayed an E max, Ca^2+ mobilization in CHO cells with human NOP and Gαqi5 (% over baseline) of 293; a pEC50, Ca^2+ mobilization in CHO cells with human NOP and Gαqi5 of 7.57 pEC50.

B4: [[Cys^12]N/OFQ-NH2]2 (peptide)
peptide: FGGFTGARKSACKLANQ-NH2
modifications: also: homodimer: Cys12-Cys12 disulfide to second copy
For B4, in assay [1], the pEC50, NOP–G protein interaction (BRET, membranes of HEK293 cells with NOP-RLuc and Gβ1-RGFP) came out at 8.9 pEC50; the E max, NOP–G protein interaction (BRET), normalised to N/OFQ-NH2 (E max = 1) worked out at 1.07. Moreover, in assay [2], the E max, Ca^2+ mobilization in CHO cells with human NOP and Gαqi5 (% over baseline) was 346; the pEC50, Ca^2+ mobilization in CHO cells with human NOP and Gαqi5 is 8.52 pEC50.

B5: [[Cys^9]N/OFQ-NH2]2 (peptide)
peptide: FGGFTGARCSARKLANQ-NH2
modifications: also: homodimer: Cys9-Cys9 disulfide to second copy
Take B5: in assay [1], the pEC50, NOP–G protein interaction (BRET, membranes of HEK293 cells with NOP-RLuc and Gβ1-RGFP) came out at 8.87 pEC50; the E max, NOP–G protein interaction (BRET), normalised to N/OFQ-NH2 (E max = 1) was determined as 1.03. In assay [2], the E max, Ca^2+ mobilization in CHO cells with human NOP and Gαqi5 (% over baseline) was found to be 289; the pEC50, Ca^2+ mobilization in CHO cells with human NOP and Gαqi5 was 8.3 pEC50.

B6: [[Cys^10]N/OFQ-NH2]2 (peptide)
peptide: FGGFTGARKCARKLANQ-NH2
modifications: also: homodimer: Cys10-Cys10 disulfide to second copy
Turning to B6, in assay [1], the pEC50, NOP–G protein interaction (BRET, membranes of HEK293 cells with NOP-RLuc and Gβ1-RGFP) was 9.85 pEC50; the E max, NOP–G protein interaction (BRET), normalised to N/OFQ-NH2 (E max = 1) turned out to be 1.07. Also, in assay [2], the E max, Ca^2+ mobilization in CHO cells with human NOP and Gαqi5 (% over baseline) worked out at 305; the pEC50, Ca^2+ mobilization in CHO cells with human NOP and Gαqi5 was 8.72 pEC50.

B7: [[Cys^16]N/OFQ-NH2]2 (peptide)
peptide: FGGFTGARKSARKLACQ-NH2
modifications: also: homodimer: Cys16-Cys16 disulfide to second copy
Consider B7, for which, in assay [1], the pEC50, NOP–G protein interaction (BRET, membranes of HEK293 cells with NOP-RLuc and Gβ1-RGFP) is 9.76 pEC50; the E max, NOP–G protein interaction (BRET), normalised to N/OFQ-NH2 (E max = 1) was 0.98. Besides, in assay [2], the E max, Ca^2+ mobilization in CHO cells with human NOP and Gαqi5 (% over baseline) came out at 312; the pEC50, Ca^2+ mobilization in CHO cells with human NOP and Gαqi5 is 8.86 pEC50.

B8: [[Cys^13]N/OFQ-NH2]2 (peptide)
peptide: FGGFTGARKSARCLANQ-NH2
modifications: also: homodimer: Cys13-Cys13 disulfide to second copy
In assay [1], B8 registered a pEC50, NOP–G protein interaction (BRET, membranes of HEK293 cells with NOP-RLuc and Gβ1-RGFP) of 9.52 pEC50; an E max, NOP–G protein interaction (BRET), normalised to N/OFQ-NH2 (E max = 1) of 0.84. In addition, in assay [2], the E max, Ca^2+ mobilization in CHO cells with human NOP and Gαqi5 (% over baseline) was 247; the pEC50, Ca^2+ mobilization in CHO cells with human NOP and Gαqi5 came to 8.79 pEC50.

(Values after article PMC12621184, “Synthesis and Pharmacological Characterization of Nociceptin/Orphanin FQ Dimeric Ligands” (Journal of Medicinal Chemistry, 2025).)
